Assay results reported in patent US20030191058A1 (WALTER AND ELIZA INSTITUTE OF MEDICAL RESEARCH, published 2003).
Square brackets hold non-standard residues; d marks the D form. * marks the point of attachment. Biotin = O=C1N[C@H]2[C@H](CS[C@H]2CCCCC(=O)*)N1; pY = N[C@@H](Cc1ccc(OP(=O)(O)O)cc1)C(=O)O

How the values were obtained:
[1] = biological target: recombinant murine SOCS-3, hexahistidine tagged (expressed from pET15b in E. coli, refolded) (murine) (UniProt O35718); test: SPR competition assay, soluble peptide against immobilised biotin-gp130(750-764) phosphopeptide
[2] = biological target: recombinant murine SOCS-3, hexahistidine tagged (expressed from pET15b in E. coli, refolded) (murine) (UniProt O35718); test: SPR competition assay, reference gp130(750-764) phosphopeptide
[3] = biological target: recombinant murine SOCS-3, hexahistidine tagged (expressed from pET15b in E. coli, refolded) (murine) (UniProt O35718); test: SPR competition assay, soluble peptide against immobilised biotin-gp130(750-764) phosphopeptide; remark: listed apart in the source
[4] = biological target: EPOR/gp130Y757F chimeric receptor (EPO receptor extracellular domain and gp130 cytoplasmic domain with tyrosine 757 mutated to phenylalanine); test: cell-based or functional assay
[5] = biological target: EPOR/gp130 chimeric receptor (erythropoietin receptor extracellular domain and gp130 cytoplasmic domain); test: cell-based or functional assay
[6] = biological target: recombinant murine SOCS-3, hexahistidine tagged (expressed from pET15b in E. coli, refolded) (murine) (UniProt O35718); test: SPR competition assay, soluble peptide against immobilised biotin-gp130(750-764) phosphopeptide, ~100 nM SOCS-3
[7] = biological target: T1, recombinant murine SOCS-3, hexahistidine tagged (expressed from pET15b in E. coli, refolded) (murine, UniProt O35718 1-225); test: pull-down: biotinylated phosphopeptide on streptavidin-agarose, eluate on SDS-PAGE
T1 construct: also called recombinant SOCS-3; suppressor of cytokine signalling 3; not shown: hexahistidine tag from vector pET15b (NdeI/BamHI cloning)
T1 sequence (looked up): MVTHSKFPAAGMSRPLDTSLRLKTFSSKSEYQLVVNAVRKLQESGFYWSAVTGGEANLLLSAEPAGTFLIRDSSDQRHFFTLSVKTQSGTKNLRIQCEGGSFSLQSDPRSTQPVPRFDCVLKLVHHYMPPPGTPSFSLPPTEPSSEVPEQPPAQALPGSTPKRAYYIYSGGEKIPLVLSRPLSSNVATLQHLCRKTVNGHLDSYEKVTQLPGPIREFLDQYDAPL
Protocol: After washing and elution of bound protein, samples were analyzed by SDS-PAGE.
Biotinylated phosphopeptides were also prepared corresponding to the known tyrosine phosphorylation sites in murine STAT-1 (Y701) and STAT-3 (Y705). […] Following removal of the protein solution, resin was washed twice with 1 mL PBS/0.1% v/v Tween-20, and bound protein eluted with 25 μL of SDS sample buffer containing 10 mM DTT, Samples were analyzed by SDS-PAGE on 12% w/v polyacrylamide gels.

| Molecule | IC50 [6] [nM] | IC50 analogue/IC50 wild-type [2] | further results |
| --- | --- | --- | --- |
| JAK1 activation loop phosphopeptide IETDKE(pY)YTVKDDRD |  |  | IC50 [1]: 230000 nM |
| JAK2 activation loop phosphopeptide LPQDKE(pY)YKVKEPGE |  |  | fold weaker affinity than gp130(750-764) [2]: 10000 fold |
| JAK3 activation loop phosphopeptide LPLGKD(PY)YVVREPGQ |  |  | IC50 [3]: 110000 nM; IC50 [1]: 140000 nM; fold weaker affinity than gp130(750-764) [2]: 1000 fold |
| SOCS-3 expressed in transiently transfected 293T cells (Flag-tagged, detected with anti-Flag antibody) |  |  | 50% inhibition of EPO-induced APRE-luc luciferase activity in 293T cells (amount of SOCS-3 DNA transfected) [4]: 54 ng; 50% inhibition of EPO-induced APRE-luc luciferase activity in 293T cells (amount of SOCS-3 DNA transfected) [5]: 4 ng |
| gp130(750-764) phosphopeptide analogue STASTVE(pY)ATVVHSG | 72 | 0.65 |  |
| gp130(750-764) phosphopeptide analogue STASTVE(pY)STAVHSG | 3400 | 31 |  |
| gp130(750-764) phosphopeptide analogue STASTVE(pY)STVAHSG | 1100 | 10 |  |
| gp130(750-764) phosphopeptide analogue STASTVE(pY)STVVASG | 770 | 7 |  |
| truncated gp130 phosphopeptide Ac(pY)STVVHSG | 9600 | 87 |  |
| truncated gp130 phosphopeptide AcE(pY)STVVHSG | 970 | 8.8 |  |
| truncated gp130 phosphopeptide AcTVE(pY)STVVHSG | 120 | 1.1 |  |
| truncated gp130 phosphopeptide STASTVE(pY)STVV | 1100 | 10 |  |
| truncated gp130 phosphopeptide STASTVE(pY)STVVH | 77 | 0.7 |  |
| truncated gp130 phosphopeptide STASTVE(pY)STVVHS | 61 | 0.55 |  |
| truncated gp130 phosphopeptide analogue AcAE(pY)STVVHSG | 580 | 5.3 |  |
| truncated gp130 phosphopeptide analogue AcVA(pY)STVVHSG | 550 | 5 |  |
| Biotin-FNSKDQM[pY]SDGNFTD-NH2 (SMILES CSCC[C@H](NC(=O)[C@H](CCC(N)=O)NC(=O)[C@H](CC(=O)O)NC(=O)[C@H](CCCCN)NC(=O)[C@H](CO)NC(=O)[C@H](CC(N)=O)NC(=O)[C@H](Cc1ccccc1)NC(=O)CCCC[C@@H]1SC[C@@H]2NC(=O)N[C@@H]21)C(=O)N[C@@H](Cc1ccc(OP(=O)(O)O)cc1)C(=O)N[C@@H](CO)C(=O)N[C@@H](CC(=O)O)C(=O)NCC(=O)N[C@@H](CC(N)=O)C(=O)N[C@@H](Cc1ccccc1)C(=O)N[C@H](C(=O)N[C@@H](CC(=O)O)C(N)=O)[C@@H](C)O) [biotinylated gp130(674-688) phosphopeptide] |  |  | binding result [7]: no binding (tested: 50 µg/mL) |
| Biotin-QTVRQGG[pY]MPQ-NH2 (SMILES CSCC[C@H](NC(=O)[C@H](Cc1ccc(OP(=O)(O)O)cc1)NC(=O)CNC(=O)CNC(=O)[C@H](CCC(N)=O)NC(=O)[C@H](CCCNC(=N)N)NC(=O)[C@@H](NC(=O)[C@@H](NC(=O)[C@H](CCC(N)=O)NC(=O)CCCC[C@@H]1SC[C@@H]2NC(=O)N[C@@H]21)[C@@H](C)O)C(C)C)C(=O)N1CCC[C@H]1C(=O)N[C@@H](CCC(N)=O)C(N)=O, also called biotinylated gp130(907-917) phosphopeptide; member of the group m25) [pY914 QTVRQGG(pY)MPQ gp130 (907-917)] |  |  | binding result [7]: no binding (tested: 50 µg/mL) |
| Biotin-STVVHSG[pY]RHQVPSV-NH2 (SMILES CC(C)[C@H](NC(=O)[C@H](CO)NC(=O)[C@@H]1CCCN1C(=O)[C@@H](NC(=O)[C@H](CCC(N)=O)NC(=O)[C@H](Cc1c[nH]cn1)NC(=O)[C@H](CCCNC(=N)N)NC(=O)[C@H](Cc1ccc(OP(=O)(O)O)cc1)NC(=O)CNC(=O)[C@H](CO)NC(=O)[C@H](Cc1c[nH]cn1)NC(=O)[C@@H](NC(=O)[C@@H](NC(=O)[C@@H](NC(=O)[C@H](CO)NC(=O)CCCC[C@@H]1SC[C@@H]2NC(=O)N[C@@H]21)[C@@H](C)O)C(C)C)C(C)C)C(C)C)C(N)=O, also called biotinylated gp130(758-772) phosphopeptide; member of the group m25) [pY765 STVVHSG(pY)RHQVPSV gp130 (758-772)] |  |  | binding result [7]: no binding (tested: 50 µg/mL) |
